According to patent publication US20120058906A1 (published 2012):
Changes are numbered by the printed parent chain. One block for each binder: values may come before it.

What was measured:
[1] = biological target: T1, rHuman HGF R/c-MET/Fc Chimera, CF (R&D Systems Cat#358-MT/CF) (human, UniProt P08581 25-932); assay: MSD ECL multi-spot plate; Fab 2.0 nM; blank spot 316
T1 construct: also called HGF R/Fc; hepatocyte growth factor receptor; Fc part of the bought chimera not given

[2] = biological target: T2, Recombinant Human DLL4 (R&D Systems Cat#1506-D4/CF) (human, UniProt Q9NR61 27-524); assay: as above
T2 construct: also called delta-like protein 4

[3] = biological target: T3, rHuman ErbB2/Fc Chimera, CF (R&D Systems Cat#1129-ER) (human, UniProt P04626 23-652); assay: as above
T3 construct: also called HER2/neu; human epidermal growth factor 2 receptor; Fc part of the bought chimera not given

[4] = biological target: T4, rHuman IGF-1 sR (insulin-like growth factor-1 soluble receptor), CF (R&D Systems Cat#391-GR) (human, UniProt P08069 31-932); assay: MSD ECL titration, Fab 595.8 nM, blank 285
T4 construct: Bought soluble receptor; also called IGF-R1

[5] = biological target: T5, rHuman CD44/Fc Chimera, CF (R&D Systems Cat#3660-CD) (human, UniProt P16070 21-220); assay: MSD ECL titration, Fab 595.8 nM, blank 285
T5 construct: Bought Fc chimera; Fc part of the bought chimera not given

[6] = biological target: T6, rHuman EGF R/Fc Chimera, CF (R&D Systems Cat#344-ER) (human, UniProt P00533 25-645); assay: MSD ECL titration, Fab 595.8 nM, blank 285
T6 construct: Bought Fc chimera; Fc part of the bought chimera not given

[7] = biological target: T7, rHuman Notch-1/Fc Chimera, CF (R&D Systems Cat#3647-TK) (human, UniProt P46531 19-526); assay: MSD ECL titration, Fab 595.8 nM, blank 285
T7 construct: Bought Fc chimera; Fc part of the bought chimera not given

[8] = biological target: T8, Recombinant Human DLL4 (R&D Systems Cat#1506-D4/CF) (human, UniProt Q9NR61 27-524); assay: MSD ECL titration, Fab 595.8 nM, blank 285
T8 construct: Bought recombinant protein; also called rHuman DLL4; delta-like protein 4

[9] = biological target: T9, rHuman Erythropoietin R/Fc Chimera, CF (R&D Systems Cat#963-ER) (human, UniProt P19235 25-250); assay: MSD ECL titration, Fab 595.8 nM, blank 285
T9 construct: Bought Fc chimera; also called EPO R/Fc; EPOR; Fc part of the bought chimera not given
T9 sequence: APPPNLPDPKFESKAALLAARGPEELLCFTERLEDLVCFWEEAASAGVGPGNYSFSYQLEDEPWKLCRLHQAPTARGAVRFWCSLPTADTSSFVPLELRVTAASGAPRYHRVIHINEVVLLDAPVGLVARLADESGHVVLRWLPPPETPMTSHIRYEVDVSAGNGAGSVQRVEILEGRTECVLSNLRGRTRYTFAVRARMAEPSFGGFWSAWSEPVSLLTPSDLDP

[10] = biological target: T10, rHuman P-Cadherin/Fc Chimera, CF (R&D Systems Cat#861-PC) (human, UniProt P22223 108-654); assay: MSD ECL titration, Fab 595.8 nM, blank 285
T10 construct: Bought Fc chimera; Fc part of the bought chimera not given

[11] = biological target: T11, rHuman HGF R/c-MET/Fc Chimera, CF (R&D Systems Cat#358-MT/CF) (human, UniProt P08581 25-932); assay: MSD ECL titration, Fab 595.8 nM, blank 285
T11 construct: Bought Fc chimera; also called HGF R/Fc; Fc part of the bought chimera not given

[12] = biological target: T12, rHuman ErbB2/Fc Chimera, CF (R&D Systems Cat#1129-ER) (human, UniProt P04626 23-652); assay: MSD ECL titration, Fab 595.8 nM, blank 285
T12 construct: Bought Fc chimera; also called HER2/neu; Fc part of the bought chimera not given

[13] = biological target: T13, Recombinant Human DLL4 (R&D Systems Cat#1506-D4/CF) (human, UniProt Q9NR61 27-524); assay: ECL (MSD multi-spot), antigen on plate, Fab 0.4 nM
T13 construct: Bought recombinant protein; also called delta-like protein 4

[14] = biological target: T14, rHuman ErbB2/Fc Chimera, CF (R&D Systems Cat#1129-ER) (human, UniProt P04626 23-652); assay: ECL (MSD multi-spot), antigen on plate, Fab 0.4 nM
T14 construct: Bought Fc chimera; also called HER2/neu; not shown: Fc of the bought chimera

[15] = biological target: T15, rHuman Notch-1/Fc Chimera, CF (R&D Systems Cat#3647-TK) (human, UniProt P46531 19-526); assay: ECL (MSD multi-spot), antigen on plate, Fab 0.4 nM
T15 construct: Bought Fc chimera; not shown: Fc of the bought chimera

[16] = biological target: T16, rHuman IGF-1 sR (insulin-like growth factor-1 soluble receptor), CF (R&D Systems Cat#391-GR) (human, UniProt P08069 31-932); assay: ECL (MSD multi-spot), antigen on plate, Fab 0.4 nM
T16 construct: Bought soluble receptor; also called IGF-R1

[17] = biological target: T17, rHuman EGF R/Fc Chimera, CF (R&D Systems Cat#344-ER) (human, UniProt P00533 25-645); assay: ECL (MSD multi-spot), antigen on plate, Fab 0.4 nM
T17 construct: Bought Fc chimera; also called ErbB-1; not shown: Fc of the bought chimera

[18] = biological target: T18, rHuman HGF R/c-MET/Fc Chimera, CF (R&D Systems Cat#358-MT/CF) (human, UniProt P08581 25-932); assay: ECL (MSD multi-spot), antigen on plate, Fab 0.4 nM
T18 construct: Bought Fc chimera; also called HGF R/Fc; not shown: Fc of the bought chimera

[19] = biological target: T19, rHuman CD44/Fc Chimera, CF (R&D Systems Cat#3660-CD) (human, UniProt P16070 21-220); assay: ECL (MSD multi-spot), antigen on plate, Fab 0.4 nM
T19 construct: Bought Fc chimera; not shown: Fc of the bought chimera

[20] = biological target: T20, rHuman Erythropoietin R/Fc Chimera, CF (R&D Systems Cat#963-ER) (human, UniProt P19235 25-250); assay: ECL (MSD multi-spot), antigen on plate, Fab 0.4 nM
T20 construct: Bought Fc chimera; also called EPO R/Fc; Epo R; not shown: Fc of the bought chimera
T20 sequence: T9 sequence
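Also: blank spot per well as comparator with Hit at signal to blank ratio of 4 or more.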

ECL signal [1]: 356 ECL signal | ECL signal [2]: 605 ECL signal | ECL signal [3]: 382 ECL signal
B1: Fab VH1-8_IGHD2-2*01_IGHJ6*01 & L12_IGKJ1*01 (Fab, V domains shown)
VH: QVQLVQSGAEVKKPGASVKVSCKASGYTFTSYDINWVRQATGQGLEWMGWMNPNSGNTGYAQKFQGRVTMTRNTSISTAYMELSSLRSEDTAVYYCARGGYCSSTSCYADYYYYYGMDVWGQGTTVTVSS
VL: not shown

ECL signal [4]: 335 | ECL signal [5]: 372 | ECL signal [6]: 403 | ECL signal [7]: 306 | ECL signal [8]: 17200 | ECL signal [9]: 378 | ECL signal [10]: 617 | ECL signal [11]: 353 | ECL signal [12]: 321
B2: Fab VH1-46_IGHD6-6*01_IGHJ1*01 & L6_IGKJ1*01 (Fab, V domains shown)
VH: QVQLVQSGAEVKKPGASVKVSCKASGYTFTSYYMHWVRQAPGQGLEWMGIINPSGGSTSYAQKFQGRVTMTRDTSTSTVYMELSSLRSEDTAVYYCAREEYSSSSAEYFQHWGQGTLVTVSS
VL: not shown
notes: Expressed in E. coli as Fab: heavy chain with CH1 plus Flag and His tags from Plasmid A, kappa light chain constant region from Plasmid C; also called Fab No. 1

ECL signal [13]: 1260 ECL signal | ECL signal [14]: 159 ECL signal | ECL signal [15]: 197 ECL signal | ECL signal [16]: 65 ECL signal | ECL signal [17]: 175 ECL signal | ECL signal [18]: 119 ECL signal | ECL signal [19]: 190 ECL signal | ECL signal [20]: 217 ECL signal
B3: Fab VH1-46_IGHD6-6*01_IGHJ1*01_S102A_S103P_S104F & L6_IGKJ1*01_S31K (Fab, V domains shown)
VH: B2 VH with S102A, S103P, S104F
VL: EIVLTQSPATLSLSPGERATLSCRASQSVSKYLAWYQQKPGQAPRLLIYDASNRATGIPARFSGSGSGTDFTLTISSLEPEDFAVYYCQQRSNWPPWTFGQGTKVEIKR
notes: Fab
